Results published in IntAct's records for PubMed 31515488.

B1: Syntaxin-3 (Homo sapiens), Q13277 (parent)
chain: MKDRLEQLKAKQLTQDDDTDAVEIAIDNTAFMDEFFSEIEETRLNIDKISEHVEEAKKLYSIILSAPIPEPKTKDDLEQLTTEIKKRANNVRNKLKSMEKHIEEDEVRSSADLRIRKSQHSVLSRKFVEVMTKYNEAQVDFRERSKGRIQRQLEITGKKTTDEELEEMLESGNPAIFTSGIIDSQISKQALSEIEGRHKDIVRLESSIKELHDMFMDIAMLVENQGEMLDNIELNVMHTVDHVEKARDETKKAVKYQSQARKKLIIIIVLVVVLLGILALIIGLSVGLN
partner: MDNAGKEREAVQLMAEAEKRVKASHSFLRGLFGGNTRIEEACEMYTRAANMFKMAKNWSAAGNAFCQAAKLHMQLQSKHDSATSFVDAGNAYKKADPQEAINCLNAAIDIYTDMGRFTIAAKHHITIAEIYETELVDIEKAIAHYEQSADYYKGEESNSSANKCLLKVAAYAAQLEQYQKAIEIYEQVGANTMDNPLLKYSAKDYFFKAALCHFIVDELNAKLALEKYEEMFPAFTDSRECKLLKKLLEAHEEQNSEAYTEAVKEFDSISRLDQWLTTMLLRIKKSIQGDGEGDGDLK
B2: Cyclin-dependent kinase 4 inhibitor D (Homo sapiens), P55273 (parent)
chain: MLLEEVRAGDRLSGAAARGDVQEVRRLLHRELVHPDALNRFGKTALQVMMFGSTAIALELLKQGASPNVQDTSGTSPVHDAARTGFLDTLKVLVEHGADVNVPDGTGALPIHLAVQEGHTAVVSFLAAESDLHRRDARGLTPLELALQRGAQDLVDILQGHMVAPL
B3: Microtubule-associated tumor suppressor candidate 2 (Homo sapiens), Q5JR59-3 (parent)
chain: MGHCCCKPYNCLQCLDKTNESALVKEKELSIELANIRDEVAFHTAKCEKLQKEKEELERRFEDEVKRLGWQQQAELQELEERLQLQFEAEMARLQEEHGDQLLSIRCQHQEQVEDLTASHDAALLEMENNHTVAITILQDDHDHKVQELMSTHELEKKELEENFEKLRLSLQDQVDTLTFQSQSLRDRARRFEEALRKNTEEQLEIALAPYQHLEEDMKSLKQVLEMKNQQIHEQEKKILELEKLAEKNIILEEKIQVLQQQNEDLKARIDQNTVVTRQLSEENANLQEYVEKETQEKKRLSRTNEELLWKLQTGDPTSPIKLSPTSPVYRGSSSGPSSPARVSTTPR
partner: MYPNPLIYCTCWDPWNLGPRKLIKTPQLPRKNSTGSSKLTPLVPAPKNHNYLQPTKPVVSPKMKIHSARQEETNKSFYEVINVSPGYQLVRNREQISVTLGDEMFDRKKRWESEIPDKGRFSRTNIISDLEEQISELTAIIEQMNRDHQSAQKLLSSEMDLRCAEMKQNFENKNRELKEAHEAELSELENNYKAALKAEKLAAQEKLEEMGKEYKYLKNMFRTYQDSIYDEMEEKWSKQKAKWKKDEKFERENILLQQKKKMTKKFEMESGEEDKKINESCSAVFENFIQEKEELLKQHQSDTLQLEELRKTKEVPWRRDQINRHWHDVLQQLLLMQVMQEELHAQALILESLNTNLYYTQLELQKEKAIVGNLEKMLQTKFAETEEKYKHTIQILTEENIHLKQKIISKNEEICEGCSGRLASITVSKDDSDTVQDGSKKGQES
B4: Phospholipid scramblase 4 (Homo sapiens), Q9NRQ2 (parent)
chain: MSGVVPTAPEQPAGEMENQTKPPDPRPDAPPEYNSHFLPGPPGTAVPPPTGYPGGLPMGYYSPQQPSTFPLYQPVGGIHPVRYQPGKYPMPNQSVPITWMPGPTPMANCPPGLEYLVQLDNIHVLQHFEPLEMMTCFETNNRYDIKNNSDQMVYIVTEDTDDFTRNAYRTLRPFVLRVTDCMGREIMTMQRPFRCTCCCFCCPSARQELEVQCPPGVTIGFVAEHWNLCRAVYSIQNEKKENVMRVRGPCSTYGCGSDSVFEVKSLDGISNIGSIIRKWNGLLSAMADADHFDIHFPLDLDVKMKAMIFGACFLIDFMYFERSPPQRSR
partner: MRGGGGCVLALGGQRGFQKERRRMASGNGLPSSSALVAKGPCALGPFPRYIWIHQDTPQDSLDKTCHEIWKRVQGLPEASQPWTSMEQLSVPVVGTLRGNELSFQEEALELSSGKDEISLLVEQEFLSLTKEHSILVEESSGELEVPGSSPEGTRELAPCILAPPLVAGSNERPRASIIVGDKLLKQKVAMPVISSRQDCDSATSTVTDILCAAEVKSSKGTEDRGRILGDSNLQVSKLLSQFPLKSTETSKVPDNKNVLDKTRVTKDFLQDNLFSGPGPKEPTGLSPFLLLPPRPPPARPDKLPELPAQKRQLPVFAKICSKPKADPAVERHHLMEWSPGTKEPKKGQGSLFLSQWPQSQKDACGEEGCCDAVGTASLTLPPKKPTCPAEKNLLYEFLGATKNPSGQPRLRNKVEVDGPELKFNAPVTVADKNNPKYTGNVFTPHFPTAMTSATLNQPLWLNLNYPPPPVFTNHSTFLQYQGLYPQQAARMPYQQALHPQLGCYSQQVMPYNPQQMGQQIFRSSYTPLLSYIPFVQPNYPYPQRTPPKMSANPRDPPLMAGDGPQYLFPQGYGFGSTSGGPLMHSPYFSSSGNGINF

Variants of: B1
Settings: with snab_human NAPB

effect of a mutation on the interaction | Variant
with no effect | H198Y

Variants of: B2
Settings: with nr4a1_human NR4A1, P22736

effect of a mutation on the interaction | Variant
disrupting interaction strength | P142S
with no effect | A121S

Variants of: B2
Settings: with nr4a2_human NR4A2, P43354

effect of a mutation on the interaction | Variant
with no effect | P142S
with no effect | A121S

Variants of: B2
Settings: with cdk6_human CDK6, Q00534

effect of a mutation on the interaction | Variant
with no effect | P142S
with no effect | V94M
with no effect | A121S
with no effect | P67L

Variants of: B2
Settings: with cdk4_human CDK4, P11802

effect of a mutation on the interaction | Variant
with no effect | A121S

Variants of: B3
Settings: with facc1_human FLACC1, Q96Q35

effect of a mutation on the interaction | Variant
with no effect | A89V

Variants of: B4
Settings: with ca094_human C1orf94, Q6P1W5

effect of a mutation on the interaction | Variant
with no effect | I155V
with no effect | N34S
